Patent US20200087373A1 (UNIVERSITY OF COPENHAGEN, published 2020)
Ends that are not written are not given here. * marks the point of attachment. C16 diacid = O=C(O)CCCCCCCCCCCCCCC(=O)*

T1: human GIP receptor (human, UniProt P48546 22-466)
T1 construct: whole, on cells; Transiently transfected COS-7 cells expressing the human GIP receptor; also called hGIPR
T1 sequence (looked up): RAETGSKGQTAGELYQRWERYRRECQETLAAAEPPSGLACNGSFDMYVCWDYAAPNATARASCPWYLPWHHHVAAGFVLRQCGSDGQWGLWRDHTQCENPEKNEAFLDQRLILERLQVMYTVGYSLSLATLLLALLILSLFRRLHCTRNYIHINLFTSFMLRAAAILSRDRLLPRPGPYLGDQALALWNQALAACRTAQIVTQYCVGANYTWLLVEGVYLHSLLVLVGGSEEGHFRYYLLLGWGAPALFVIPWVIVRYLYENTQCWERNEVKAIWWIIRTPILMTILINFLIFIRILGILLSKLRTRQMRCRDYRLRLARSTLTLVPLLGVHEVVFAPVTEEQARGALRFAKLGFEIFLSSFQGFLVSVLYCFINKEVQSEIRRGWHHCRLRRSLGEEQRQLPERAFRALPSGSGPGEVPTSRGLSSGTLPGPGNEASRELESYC


Tests used:
human GIP receptor [1] = molecular target: T1, human GIP receptor; assay: 125I-hGIP(1-42) competition binding, COS-7 cells expressing human GIPR, without HSA;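 further: nonspecific binding defined as radioligand bound to cells lacking the transfected receptor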
Protocol: (§1) After incubation, the cells were washed twice in ice-cold binding buffer (+/−2% HSA) and lysed using 200 mM NaOH with 1% SDS for 30 min. Nonspecific binding was determined as the binding of radioactive ligand to untransfected cells.

human GIP receptor [2] = molecular target: T1, human GIP receptor; assay: 125I-hGIP(1-42) competition binding, COS-7 cells expressing human GIPR, with 2% HSA;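 further: nonspecific signal taken as radioligand bound to untransfected cells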
Protocol: as §1

human GIP receptor [3] = molecular target: T1, human GIP receptor; assay: cell-based or functional assay
human GIP receptor [4] = molecular target: T1, human GIP receptor; assay: ratio of Ki with 2% HSA to Ki without HSA, 125I-hGIP competition binding on hGIPR COS-7 cells;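 further: nonspecific binding was defined as radioligand signal on cells lacking the receptor transfection, with cell lysates measured after washes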
Protocol: as §1

Binder	Ki (human GIP receptor [1]) [nM]	Ki (human GIP receptor [2]) [nM]	cAMP accumulation Fold (fold change from GIP(5-30)NH2) (human GIP receptor [3]) [fold]	cAMP accumulation IC50 (human GIP receptor [3]) [nM]	cAMP accumulation logIC50 (human GIP receptor [3])	Fold (Ki + HSA / Ki - HSA) (human GIP receptor [4]) [fold]
TFISDYSIAK(C16 diacid)DKIHQQDFVNWLLAQK-NH2 (N-terminus assumed; SMILES CC[C@H](C)[C@H](NC(=O)[C@H](CO)NC(=O)[C@H](Cc1ccc(O)cc1)NC(=O)[C@H](CC(=O)O)NC(=O)[C@H](CO)NC(=O)[C@@H](NC(=O)[C@H](Cc1ccccc1)NC(=O)[C@@H](N)[C@@H](C)O)[C@@H](C)CC)C(=O)N[C@@H](C)C(=O)N[C@@H](CCCCNC(=O)CCCCCCCCCCCCCCC(=O)O)C(=O)N[C@@H](CC(=O)O)C(=O)N[C@@H](CCCCN)C(=O)N[C@H](C(=O)N[C@@H](Cc1c[nH]cn1)C(=O)N[C@@H](CCC(N)=O)C(=O)N[C@@H](CCC(N)=O)C(=O)N[C@@H](CC(=O)O)C(=O)N[C@@H](Cc1ccccc1)C(=O)N[C@H](C(=O)N[C@@H](CC(N)=O)C(=O)N[C@@H](Cc1c[nH]c2ccccc12)C(=O)N[C@@H](CC(C)C)C(=O)N[C@@H](CC(C)C)C(=O)N[C@@H](C)C(=O)N[C@@H](CCC(N)=O)C(=O)N[C@@H](CCCCN)C(N)=O)C(C)C)[C@@H](C)CC) [AT176 [hGIP(5-30)NH2[M14K]-C16diacid/14]]	82.6	420	3.8	105	-6.98 log(M)	5.1
TFISDYSIAMDKK(C16 diacid)HQQDFVNWLLAQK-NH2 (N-terminus assumed; SMILES CC[C@H](C)[C@H](NC(=O)[C@H](CO)NC(=O)[C@H](Cc1ccc(O)cc1)NC(=O)[C@H](CC(=O)O)NC(=O)[C@H](CO)NC(=O)[C@@H](NC(=O)[C@H](Cc1ccccc1)NC(=O)[C@@H](N)[C@@H](C)O)[C@@H](C)CC)C(=O)N[C@@H](C)C(=O)N[C@@H](CCSC)C(=O)N[C@@H](CC(=O)O)C(=O)N[C@@H](CCCCN)C(=O)N[C@@H](CCCCNC(=O)CCCCCCCCCCCCCCC(=O)O)C(=O)N[C@@H](Cc1c[nH]cn1)C(=O)N[C@@H](CCC(N)=O)C(=O)N[C@@H](CCC(N)=O)C(=O)N[C@@H](CC(=O)O)C(=O)N[C@@H](Cc1ccccc1)C(=O)N[C@H](C(=O)N[C@@H](CC(N)=O)C(=O)N[C@@H](Cc1c[nH]c2ccccc12)C(=O)N[C@@H](CC(C)C)C(=O)N[C@@H](CC(C)C)C(=O)N[C@@H](C)C(=O)N[C@@H](CCC(N)=O)C(=O)N[C@@H](CCCCN)C(N)=O)C(C)C) [AT178 [hGIP(5-30)NH2[I17K]-C16diacid/17]]	54.3	243	1	27.5	-7.56 log(M)	4.5
TFISDYSIAMDKIHK(C16 diacid)QDFVNWLLAQK-NH2 (N-terminus assumed; SMILES CC[C@H](C)[C@H](NC(=O)[C@H](CO)NC(=O)[C@H](Cc1ccc(O)cc1)NC(=O)[C@H](CC(=O)O)NC(=O)[C@H](CO)NC(=O)[C@@H](NC(=O)[C@H](Cc1ccccc1)NC(=O)[C@@H](N)[C@@H](C)O)[C@@H](C)CC)C(=O)N[C@@H](C)C(=O)N[C@@H](CCSC)C(=O)N[C@@H](CC(=O)O)C(=O)N[C@@H](CCCCN)C(=O)N[C@H](C(=O)N[C@@H](Cc1c[nH]cn1)C(=O)N[C@@H](CCCCNC(=O)CCCCCCCCCCCCCCC(=O)O)C(=O)N[C@@H](CCC(N)=O)C(=O)N[C@@H](CC(=O)O)C(=O)N[C@@H](Cc1ccccc1)C(=O)N[C@H](C(=O)N[C@@H](CC(N)=O)C(=O)N[C@@H](Cc1c[nH]c2ccccc12)C(=O)N[C@@H](CC(C)C)C(=O)N[C@@H](CC(C)C)C(=O)N[C@@H](C)C(=O)N[C@@H](CCC(N)=O)C(=O)N[C@@H](CCCCN)C(N)=O)C(C)C)[C@@H](C)CC) [AT179 [hGIP(5-30)NH2[Q19K]-C16diacid/19]]	378	2380	2.1	57.5	-7.24 log(M)	6.3
TFISDYSIAMDKIHQK(C16 diacid)DFVNWLLAQK-NH2 (N-terminus assumed; SMILES CC[C@H](C)[C@H](NC(=O)[C@H](CO)NC(=O)[C@H](Cc1ccc(O)cc1)NC(=O)[C@H](CC(=O)O)NC(=O)[C@H](CO)NC(=O)[C@@H](NC(=O)[C@H](Cc1ccccc1)NC(=O)[C@@H](N)[C@@H](C)O)[C@@H](C)CC)C(=O)N[C@@H](C)C(=O)N[C@@H](CCSC)C(=O)N[C@@H](CC(=O)O)C(=O)N[C@@H](CCCCN)C(=O)N[C@H](C(=O)N[C@@H](Cc1c[nH]cn1)C(=O)N[C@@H](CCC(N)=O)C(=O)N[C@@H](CCCCNC(=O)CCCCCCCCCCCCCCC(=O)O)C(=O)N[C@@H](CC(=O)O)C(=O)N[C@@H](Cc1ccccc1)C(=O)N[C@H](C(=O)N[C@@H](CC(N)=O)C(=O)N[C@@H](Cc1c[nH]c2ccccc12)C(=O)N[C@@H](CC(C)C)C(=O)N[C@@H](CC(C)C)C(=O)N[C@@H](C)C(=O)N[C@@H](CCC(N)=O)C(=O)N[C@@H](CCCCN)C(N)=O)C(C)C)[C@@H](C)CC) [AT180 [hGIP(5-30)NH2[Q20K]-C16diacid/20]]	82.8	533	1.7	46.8	-7.33 log(M)	6.4
TFISDYSIAMK(C16 diacid)KIHQQDFVNWLLAQK-NH2 (N-terminus assumed; SMILES CC[C@H](C)[C@H](NC(=O)[C@H](CO)NC(=O)[C@H](Cc1ccc(O)cc1)NC(=O)[C@H](CC(=O)O)NC(=O)[C@H](CO)NC(=O)[C@@H](NC(=O)[C@H](Cc1ccccc1)NC(=O)[C@@H](N)[C@@H](C)O)[C@@H](C)CC)C(=O)N[C@@H](C)C(=O)N[C@@H](CCSC)C(=O)N[C@@H](CCCCNC(=O)CCCCCCCCCCCCCCC(=O)O)C(=O)N[C@@H](CCCCN)C(=O)N[C@H](C(=O)N[C@@H](Cc1c[nH]cn1)C(=O)N[C@@H](CCC(N)=O)C(=O)N[C@@H](CCC(N)=O)C(=O)N[C@@H](CC(=O)O)C(=O)N[C@@H](Cc1ccccc1)C(=O)N[C@H](C(=O)N[C@@H](CC(N)=O)C(=O)N[C@@H](Cc1c[nH]c2ccccc12)C(=O)N[C@@H](CC(C)C)C(=O)N[C@@H](CC(C)C)C(=O)N[C@@H](C)C(=O)N[C@@H](CCC(N)=O)C(=O)N[C@@H](CCCCN)C(N)=O)C(C)C)[C@@H](C)CC) [AT177 [hGIP(5-30)NH2[D15K]-C16diacid/15]]	117	444	1.3	37.2	-7.43 log(M)	3.8
TFISDYSIAMDKIHQQK(C16 diacid)FVNWLLAQK-NH2 (N-terminus assumed; SMILES CC[C@H](C)[C@H](NC(=O)[C@H](CO)NC(=O)[C@H](Cc1ccc(O)cc1)NC(=O)[C@H](CC(=O)O)NC(=O)[C@H](CO)NC(=O)[C@@H](NC(=O)[C@H](Cc1ccccc1)NC(=O)[C@@H](N)[C@@H](C)O)[C@@H](C)CC)C(=O)N[C@@H](C)C(=O)N[C@@H](CCSC)C(=O)N[C@@H](CC(=O)O)C(=O)N[C@@H](CCCCN)C(=O)N[C@H](C(=O)N[C@@H](Cc1c[nH]cn1)C(=O)N[C@@H](CCC(N)=O)C(=O)N[C@@H](CCC(N)=O)C(=O)N[C@@H](CCCCNC(=O)CCCCCCCCCCCCCCC(=O)O)C(=O)N[C@@H](Cc1ccccc1)C(=O)N[C@H](C(=O)N[C@@H](CC(N)=O)C(=O)N[C@@H](Cc1c[nH]c2ccccc12)C(=O)N[C@@H](CC(C)C)C(=O)N[C@@H](CC(C)C)C(=O)N[C@@H](C)C(=O)N[C@@H](CCC(N)=O)C(=O)N[C@@H](CCCCN)C(N)=O)C(C)C)[C@@H](C)CC) [AT181 [hGIP(5-30)NH2[D21K]-C16diacid/21]]	33.3	120	0.5	12.6	-7.9 log(M)	3.6
